“And” between values parts separate entries of the source, which are not always exact repeats. Identical values can stand only once.
Assays:
Format in all cases: physicochemical, human
[1] = Secondary structure content from far-UV CD; settings: K2D software; 20 µM protein, 7 mM Tris pH 7.4, 170 mM KCl, 5 mM MgCl2; 25 °C
Procedure: Far-UV CD spectra for all protein variants were recorded using a Jasco J-810 spectropolarimeter equipped with a Peltier holder, using a 0.1 cm path length cuvette. Typically, samples contained 20 µM protein in 7 mM Tris buffer at pH 7.4, containing 170 mM KCl and 5 mM MgCl2. The far-UV CD spectra of all the variants in their native, thermally denatured and refolded states were recorded from 198 to 250 nm, and the spectrum of the buffer was systematically subtracted from the spectra of all protein samples. The secondary structure content was estimated from the far-UV CD spectrum for each protein variant using K2D software.

[2] = Thermal denaturation monitored by far-UV CD
Procedure: Protein structural stability was analyzed by monitoring the CD signal at 222 nm upon thermal denaturation. Thermal runs were performed from 5 to 90 °C at a rate of 1 °C. min^-1. Data points were acquired every 0.1 °C with a response time of 2 s and a bandwidth of […]. After thermal denaturation, each protein sample was cooled to the starting temperature, and a second denaturation curve recorded in order to analyse the degree of reversibility of the denaturation process. Analysis of the thermal unfolding curves was performed assuming a three-state unfolding model.

[3] = nESI-MS relative populations of oligomeric forms; settings: 150 mM ammonium acetate
Procedure: Prior to MS analysis, samples were buffer exchanged into 150 mM ammonium acetate, pH 7.4, using Micro Bio-spin 6 columns (Bio-Rad, Digilab Division, Cambridge, MA, USA). For all the experiments protein concentrations ranging from 6 to 18 µM were used. In the case of the substrate binding experiments, proteins were analyzed in the presence of a 1: 1 molar ratio of the NR peptide; this substrate concentration, lower than in the SEC experiments, was chosen to ensure adequate resolution of the various charge state series, which is critical for unambiguous assignment of substrate-bound states. Due to suppression effects during nESI ionization, a relatively limited set of molar ratios could be investigated by in this way.
nESI-MS spectra were obtained according to a previously published protocol on an orthogonal time-of-flight mass spectrometer with a Z-spray source (LCT, Waters, Manchester, UK) in positive ion mode using the following parameters: capillary voltage, 1500 V; sample cone voltage, 120 V (unless otherwise specified); extraction cone voltage, 1V; and ion transfer stage pressure, 8.8 mbar. Spectra were calibrated externally using a 33 mg/ml solution of cesium iodide. Data were acquired and processed with MassLynx software (Waters, Manchester, UK), and are shown with minimal smoothing and without background subtraction. The relative abundances of the different oligomeric states were estimated from the intensities of the most abundant charge states for each construct and are expressed as a percentage of the total intensity.

[4] = Tryptophan (W580) fluorescence emission; settings: W580, excitation 295 nm
Procedure: Steady-state tryptophan fluorescence emission spectra of native, thermally denatured and refolded proteins were recorded from 300 to 400 nm, selectively exciting the only tryptophan residue in the SBD (W580) at 295 nm, using a Cary Eclipse spectrofluorimeter (Varian, Palo Alto, CA, USA). Excitation and emission band-passes were set to 5 nm each.

[5] = Analytical SEC relative populations of oligomeric forms; settings: for Dimer population / Monomer population / Total oligomer population: Superdex 75, 4 °C, 50 mM Tris pH 7.4, 150 mM KCl
Procedure: Analytical SEC was performed at 4 °C using a Superdex 75 10/300 GL column (GE Healthcare LifeSciences, Little Chalfont, U.K.), which had previously been calibrated using a mixture of standard proteins (Gel Filtration LMW Calibration Kit; GE Healthcare LifeSciences, Little Chalfont, U.K.). Typically, samples of the various constructs contained 70 µM of protein in 50 mM Tris buffer at pH 7.4, with 150 mM KCl, 5 mM MgCl2 and were incubated for 15 min (unless otherwise specified) at room temperature before being loaded onto the column for analysis. To evaluate the reversibility of the oligomerization process, the different elution peaks obtained for each protein variant were subsequently analyzed after concentrating the different fractions using AmiconUltra-0.5, Ultracel-3 Membrane, 3 kDa (Millipore, Bedford, MA, USA). A similar analysis was also performed at 6 µM concentration for all the protein variants to allow for a direct comparison between the results obtained by SEC and MS experiments.
The influence of substrate binding on the oligomerization properties of all the variants was examined by using the well-characterized Hsp70 substrate, the NR peptide (NRLLLTG, Genemed Synthesis Inc., San Antonio, TX, USA). A 14-fold excess of the peptide was added in each case to a fresh protein sample, incubated for 1 h at room temperature, unless otherwise specified, and then loaded onto the Superdex 75 10/300 GL column for analysis. The relative quantities of the different protein species were estimated by analysing the chromatographic profile using a Gaussian function for each elution peak (OriginPro 8, Originlab, Northampton, MA, USA) and measuring the relative area under each peak.

[6] = 6-15 µM protein, pH 7.4, estimated error 5% (SD of 3-4 independent experiments)
[7] = 70 µM protein, 5 mM MgCl2, 15 min at room temperature, estimated error 3.5% (SD of 3-4 independent experiments)
[8] = 6-15 µM protein, 5 mM MgCl2, estimated error 3.5% (SD of 3-4 independent experiments)

Substance: SBD641: truncated human Hsp70 (384-641), full-length SBD with interdomain linker
- Random-coil content estimated from far-UV CD [1]: 49%
- α-helix content estimated from far-UV CD [1]: 33%
- β-sheet content estimated from far-UV CD [1]: 18%
- ∆Hm, 1st transition ([2]; CD 222 nm, 20 µM protein, 7 mM Tris pH 7.4, 170 mM KCl, 5 mM MgCl2, three-state fit (C-term two-state), SE of fit): 49.4 ± 3.3 kcal/mol
- ∆Hm, 2nd transition ([2]; CD 222 nm, 20 µM protein, 7 mM Tris pH 7.4, 170 mM KCl, 5 mM MgCl2, three-state fit, SE of fit): 53.3 ± 1.2 kcal/mol
- Tm, 1st transition ([2]; CD 222 nm, 5 to 90 °C at 1 °C/min, 20 µM protein, 7 mM Tris pH 7.4, 170 mM KCl, 5 mM MgCl2, three-state fit (C-term two-state), SE of fit): 45.6 ± 0.4 °C
- Tm, 2nd transition ([2]; CD 222 nm, 5 to 90 °C at 1 °C/min, 20 µM protein, 7 mM Tris pH 7.4, 170 mM KCl, 5 mM MgCl2, three-state fit, SE of fit): 73.1 ± 0.1 °C and 73.1 ± 0.2 °C
- Degree of irreversibility of overall protein thermal denaturation ([2]; far-UV CD): ca. 20%
- Reversibility of thermal unfolding ([2]; far-UV CD, second denaturation curve after cooling): is not
- Dimer population [3, 6]: 40%
- Monomer population [3, 6]: 46%
- Total oligomer population [3, 6]: > 50% and 54%
- Trimer population [3, 6]: 12%
- Tetramer population ([3]; low μM protein, pH 7.4): 2%
- Wavelength of fluorescence emission maximum, native [4]: 340 nm
- Wavelength of fluorescence emission maximum, refolded [4]: 345 nm
- Wavelength of fluorescence emission maximum, thermally denatured [4]: 350 nm
- Dimer population [5, 7]: 55%
- Monomer population [5, 7]: 23%
- Total oligomer population [5, 7]: 77%
- Dimer population [5, 8]: 44%
- Monomer population [5, 8]: 37%
- Total oligomer population [5, 8]: > 50% and 63%
- Monomeric fraction, native protein ([5]; native SBD641, comparison with refolded): 37%
- Monomeric fraction, refolded protein ([5]; refolded after thermal denaturation): 71%
